Experimental data reported in the DeepSol protein solubility set.

experiment: soluble on expression in E. coli; label from the status in PepcDB or PDB records

Row | Sequence | soluble on expression in E. coli
1 | MAPEDGSLDRWQWYPKEKGEYSALYPRSWYEYKDVFKSELICEQFSPVWGGNYQESSYPLAVFDWTVHNPTDKPITLSIMLTWQNSVGWFTNAIKSPTVKLRDDGSPEYEYQPRWGDSTGNFNQWIQDGFRVGCLFNRVQPHEALREGEGQMCIASVSNPSVEVFYHNRWNPSGDGADVWDWFAGNGSLPDIQDETAAEPGEQIAGAICLRFTVRPGKTKKIPFLLAWDLPITEFAQGVTYYRRYTDFYGRNGKNVWSMIRTALKHSDTWRKKIEAWQAPILENPRLPDWLKMSLFNELYLLTQGGTLWTAATENDPVGQFGVCECMDYRWYESLDVRLYGSFGLLMHWPKLEQAVMLAFARAIPTEDPKERVIGYNLSLAPRKVKNATPHDLGAPNEHPWERSNYTAYQDCNLWKDLGSDFVLLVYRDFLLLPDADGEFLGECWPSIVAALDYLKGFDLDNDGIPENSGAPDQTFDDWRLQGISAYCGGLWIAALEAALVMGQYLLENPPQQTDLDAMEIQTAIARYETWLAQARSLYQDTLWNGEYYNLDSQSGSKVVMADQLCGQFYARLLNLPDVVEHHYAEKALAKVYDTCFLKFAHGELGAANGLLPDGSPQNPNDTHPLEVWTGINFGLAAFLIQMGMKEEALKMTETVVNQVYNNGLQFRTPEAITAVGTFRASHYLRAMAIWAVYGLLEGFSNLPIAPADDEVPTSDFYLEHHHHHH | not soluble
2 | MGSDKIHHHHHHMQKKGNKYGTHRVLAPQGVLPQPAEKVDNNMDEIYDNEILIDVKTLNIDSASFTQIHEQAGGDKAKIAEIMLGIVAKQGKHRNPVTGSGGMLLGVVEKIGDALKDKIDLKVGDKIATLVSLSLTPLRIDKIKEIRPDVDQVDIEGKAILFESGIYAKIPNDLPEKLALSALDVAGAPAQTAKLVKPGDTVLIIGAGGKSGMLCCYEAKKRAGVTGKVIGLCHSQKSTDRLKALGFCDHVFSADATKPVPVMEEIEKLTNGEMCDVTINNVNITDTEMTSILCTKNDGIVYFFSMATSFTKAALGAEGVGSDVTMIVGNGYTKGHAEITLQELRECEALRKVFTELYA | not soluble
3 | MSEVKVITGTSAAAEAAKLADVDVIAAYPITPQTTCVEKLADFVANGELNAEYIKVESEHSAMSASIAASATGARTFTATSSQGLALMHEVLFAAAGMRVPVVMMNANRALSAPINIWNDQQDSLSQRDTGWIQLYAEDNQEVLDLVIQAFKIAEDEKVLLPVMVNLDGFILTHTVEPVTLPKQESVLDFIGSYEPKHAYLDPKKPMTQGSLGDPNYYMETRYAIETAMRNAEKVIADVHDAFAEKFNRAYGNGLIESYNLEKAENVIVAMGSICGTIKDMIDLKKKEGVEIGLLKIRCYRPLPVEMIKDALKNAKNVAILDKSISLGMNKGAIYADVASFLKDKKTVNYIVGLGGRDITPEDILGIYVDVETSEDGKTNWVGLKEE | not soluble
4 | MTENNKLQTIEQQLVQEKNVSDNVLNKVRVLESQGNLELPNDYSPSNAMKQAWLQISQDNKLMSCNDTSKANALLDMVTQGLNPAKNQCYFIPYGNKMQLQRSYHGNVMMLKRDAGAQDVVAQVIYKGDTFKQEMGETGRIKAIKHEQDFFNIDKENIIGAYCTIVFNDGRDNYIEVMTIEQIKQAWMQSSMIKDEKALQNSKTHNNFKEEMAKKTVINRAAKRYINTSTDSNLFKYAQESEQRQRKEVLDAEVEENANQEQLDFEQPVLEEAQYTELENDKPIDVSDFEEIKEPATEKESEEEPF | not soluble
5 | MGSDKIHHHHHHMKVLEKDYQINSVRKAIDAGANSIIALPTGGGKSICILKLCQAMPDKKVVISLRNAALVPQLLHTLTINGLSVSVVKSGYKYIAGGDVTLVMEQSFGRRKHLNIQCDVLLRDEYHVGCMGGVYIAMREELSPDLIIGLTATPIDRLGVYIDKSMQLIEETTTKMLIEAGELAKPVYKVPSLSQEIDYSAVKMYRGDFSVSGLDNILLEHCSLVAQQTVDDALSHGRKVMLFANSINHVESLSEAFDLLGIEHERVHSQRSSDENDESIRRYKSNEVRLIINMSMLTIGFDDPTTDCVVLARPTKILRLYLQIIGRCLRASKGKTSALILDLAQCISTHGFAEDLRDFTRKTSKSAAIMAERLSVTNIGQFVDGEFTYNESIERKVVKKRAPVIRRKPRDGLVASKELVDRAASNRAAALLRLNPRMEKLVSTIELVNIVYEQQDESSKMLDEVAMVKLVALIGFAYSDALVDSCTALVEGLHAQNQSIRGLPLRVSNLITSIAMQDLGVKEVVTKS | not soluble
6 | MGSDKIHHHHHHKDLLGREVEIPSNVNRIVAVGPGALRLIAYLKATDMVVGVEDFEKLRPYGRPYILAYPELKKLPSVGPGGPGKLPDLESLITLQPDVVFITYVDRKTAKDIQEKTGIPVVVLSYGNLGTFEDEDLFRSIELAGKILGREERAHEVVDFIRKAQEDLVTRSEGVESPTVYVGGIGYKGAHGIDSTEAKYPPFVVLHARNVVDELGEGHKFIDPEKLLVWNPEYIFIDENGLSLVLDDYSKHREFYESLSAVKRGKVYGILPYNYYTTNIGTALADAYFIGKVLYPERFTDIDPEEKADEIYEFLLGKRVYGEMAEQFGGFGKIDLPSGRILRGTW | not soluble
7 | MGSDKIHHHHHHVLNNLGQTRYVVPRPHPQLVTTRTLVMQRIDGFNFDDVTGMQDAGIDTEDVIRTGMVAFMEGALIHGIFHGDLHGGNLFVLPDGRTALLDFGITARLDDDRRRAFLRLMMTATTNDLTGQMAALRDLGALPLDTDLQAVIRDLRLDEAPIDPTTLSGEEMVAEVQRVVKALLSYGARLPKELMLYVKNMVFLDGAIARLAPDLDLLAEVANISMMFASRHGERLMTEIGIDAANMQVNLDSVKAGFGVDLSTDRLTYRELQERRELIQKRMRSHVERTRRSAN | not soluble
8 | MYMNVLIISDSHGLEEELQTIAKRHEAEVDLMIHCGDSELETRHPALEPYAVVKGNCDFAGDFKDELLLTAGSRKILVTHGHLHGIKQTLLNVYYRAEELGADVICFGHSHIAGSEVLRGKLMINPGSIRLPRVRRTESYAILTLENDAATVRFYDQAGNEIEDLQNRVTLLEHHHHHH | not soluble
9 | MYETYHSGWIETITGSMFSGKSEELIRRLRRGIYAKQKVVVFKPAIDDRYHKEKVVSHNGNEIEAINISTAQEILNHKLEEVNVIGIDEVQFFEDDIVNIVEKLAENGHRVIVAGLDMDFRGEPFKPMPKLLAVSEHITKLQAVCSVCGSPSSRTQRLINGEPAKVDDPIILVGANESYEPRCRAHHIVAPSENEKEEMLEHHHHHH | not soluble
10 | MSLELVSFVKSHIDQAVYFSTITSNPIEFNLPESLSLDTTDIENDIKTSCDEIFYSTGSYIPPMLNTLEQHLNLRIEYFNNLIEFTKINFNYKISPTVKLYLIEKISILKCCLALFKYISDKAILSNIWRDLVLNSFNDSSLEEFVLGKLDEFPRLFTIFLNDLSAKIVGFNDVEEKVKIVDLLITCVYDAVLENCEKSIRYDALQLDPLELDNKPMWFTNLTNIKAMNNIFFSFIFPDNDLSVENKQRLLTVVKLLYYVINQNMIWHKSMKQIETEEYKEVEALYNDNHANWIHVLCNIGVHEEALQICEFYHDLGGLVEILEKLDFEISRELYDQYFKMFGYEFATILFEYYINAKDLKALFFKFPNHHDLLNKFLLSSPPKYYKYAWIQEIIDNDYRKASDILTTLSVGEAGDGCEISERQLHLNIAKLSGLVDENFDANQMIEIQRDIDTIDHQTRIKKLLEEDPTGISMNQAFANNEFGEKFQETKYCIQNDKSINIKYIIDMLSMMDSVENLYEALKLTCIYRHSLGYEVSKYFQQSIWRRCIIEESKDGVIQLEGENSKIYQLLVKYFEGKLYEYDCKLPFVSFLMDRIGISMNFLSIIYGNDNNVLVSISDSIEREYHDLIRIGDTLESQLSTIIGSANESTGNECTINYETKSIEYEGHHHHHH | soluble
11 | MIQMSSNDSSEVIRQCLQVLESITSDSSVPRNIRRSVNEIMDILNNESEPLFLRAASSISILEDISNDPNLPLHTRTLIWNLSSQLETIPVDE | not soluble
12 | MGSDKIHHHHHHMKIAIVGSGNGAVTAAVDMVDKGHDVRLYCRNESISKFDVALEKGGFDFYNEGEEKFIEFTDISDDMEYVLDGADIVQVIIPSSFIEYYAKVMSKFVTNDHLIFFNIAASMGSIRFMNVLEDRHIDVHPHFAEANTLTYGTRVDFNNAKVDLSLNVRRVFFSTFDRSELNESYEKVSKIYDYLVKEESLLKTNLENGNPEVHPGPTLLNVGRIDYSEEFSLYKEGITKHTVRLLHAIEIERLNLGRKLGFELSTAKESRIQRGYLERKDEDEPLNRLFNTSPVFSQIPGPNHVENRYLTEDIAYGLVLWSSLGRVIDVPTPNIDAVIMIASTILERDFFEEGLTIEELGLDKLGLE | not soluble
